Source: the supplement of paper PMC10567573

B1: KCNG1 (parent)
chain: AVNLSVSTLPSLREEEEQVRAHAP

Variants of: B1
Experiment: protein stability index of a GFP-peptide fusion (GPS, HEK-293T) (PSI 1-6); higher = more stable
Details: c terminus: a fixed tail appended
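Note: lentivirally expressed fusions sorted by FACS into six bins by GFP to DsRed ratio, PSI derived from sequencing read proportions per bin multiplied by bin number.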

Point of comparison: AVNLSASTLPSLREEEEQVRAHAP [V6A], protein stability index 5.14. Against it:
- AVMLSVSTLPSLREEEEQVRAHAP [N3M] — lower, 4.37
- AVPLSVSTLPSLREEEEQVRAHAP [N3P] — higher, 5.25
- AVQLSVSTLPSLREEEEQVRAHAP [N3Q] — lower, 4.77
- AVRLSVSTLPSLREEEEQVRAHAP [N3R] — lower, 4.83
- AVSLSVSTLPSLREEEEQVRAHAP [N3S] — lower, 4.87
- AVTLSVSTLPSLREEEEQVRAHAP [N3T] — lower, 4.75
- AVVLSVSTLPSLREEEEQVRAHAP [N3V] — lower, 3.06
- AVWLSVSTLPSLREEEEQVRAHAP [N3W] — lower, 3.66
- AVYLSVSTLPSLREEEEQVRAHAP [N3Y] — lower, 3.66
- AVNASVSTLPSLREEEEQVRAHAP [L4A] — lower, 4.86
- AVNCSVSTLPSLREEEEQVRAHAP [L4C] — lower, 4.88
- AVNDSVSTLPSLREEEEQVRAHAP [L4D] — higher, 5.58
- AVNESVSTLPSLREEEEQVRAHAP [L4E] — higher, 5.73
- AVNFSVSTLPSLREEEEQVRAHAP [L4F] — lower, 4.51
- AVNGSVSTLPSLREEEEQVRAHAP [L4G] — higher, 5.24
- AVNHSVSTLPSLREEEEQVRAHAP [L4H] — higher, 5.72
- AVNISVSTLPSLREEEEQVRAHAP [L4I] — lower, 4.8
- AVNKSVSTLPSLREEEEQVRAHAP [L4K] — higher, 5.24
- AVNMSVSTLPSLREEEEQVRAHAP [L4M] — lower, 5.05
- AVNNSVSTLPSLREEEEQVRAHAP [L4N] — higher, 5.55
- AVNPSVSTLPSLREEEEQVRAHAP [L4P] — higher, 5.32
- AVNQSVSTLPSLREEEEQVRAHAP [L4Q] — higher, 5.44
- AVNRSVSTLPSLREEEEQVRAHAP [L4R] — lower, 5.03
- AVNSSVSTLPSLREEEEQVRAHAP [L4S] — lower, 5.05
- AVNTSVSTLPSLREEEEQVRAHAP [L4T] — lower, 4.9
- AVNVSVSTLPSLREEEEQVRAHAP [L4V] — lower, 5.01
- AVNWSVSTLPSLREEEEQVRAHAP [L4W] — lower, 4.45
- AVNYSVSTLPSLREEEEQVRAHAP [L4Y] — lower, 4.98
- AVNLAVSTLPSLREEEEQVRAHAP [S5A] — higher, 5.48
- AVNLCVSTLPSLREEEEQVRAHAP [S5C] — lower, 4.65
- AVNLDVSTLPSLREEEEQVRAHAP [S5D] — higher, 5.24
- AVNLEVSTLPSLREEEEQVRAHAP [S5E] — higher, 5.33
- AVNLFVSTLPSLREEEEQVRAHAP [S5F] — lower, 3.79
- AVNLGVSTLPSLREEEEQVRAHAP [S5G] — lower, 4.93
- AVNLHVSTLPSLREEEEQVRAHAP [S5H] — lower, 4.71
- AVNLIVSTLPSLREEEEQVRAHAP [S5I] — lower, 3.86
- AVNLKVSTLPSLREEEEQVRAHAP [S5K] — lower, 4.47
- AVNLLVSTLPSLREEEEQVRAHAP [S5L] — lower, 3.82
- AVNLMVSTLPSLREEEEQVRAHAP [S5M] — lower, 4.49
- AVNLNVSTLPSLREEEEQVRAHAP [S5N] — lower, 4.03
- AVNLPVSTLPSLREEEEQVRAHAP [S5P] — higher, 5.36
- AVNLQVSTLPSLREEEEQVRAHAP [S5Q] — lower, 4.2
- AVNLRVSTLPSLREEEEQVRAHAP [S5R] — lower, 3.29
- AVNLTVSTLPSLREEEEQVRAHAP [S5T] — lower, 4.59
- AVNLVVSTLPSLREEEEQVRAHAP [S5V] — lower, 4.1
- AVNLWVSTLPSLREEEEQVRAHAP [S5W] — lower, 3.31
- AVNLYVSTLPSLREEEEQVRAHAP [S5Y] — lower, 4.59
- AVNLSCSTLPSLREEEEQVRAHAP [V6C] — lower, 4.75
- AVNLSDSTLPSLREEEEQVRAHAP [V6D] — higher, 5.34
- AVNLSESTLPSLREEEEQVRAHAP [V6E] — higher, 5.58
- AVNLSFSTLPSLREEEEQVRAHAP [V6F] — lower, 4.59
- AVNLSGSTLPSLREEEEQVRAHAP [V6G] — lower, 4.8
- AVNLSHSTLPSLREEEEQVRAHAP [V6H] — higher, 5.3
- AVNLSISTLPSLREEEEQVRAHAP [V6I] — lower, 5.08
- AVNLSKSTLPSLREEEEQVRAHAP [V6K] — lower, 5.01
- AVNLSLSTLPSLREEEEQVRAHAP [V6L] — lower, 4.69
- AVNLSMSTLPSLREEEEQVRAHAP [V6M] — lower, 4.98
- AVNLSNSTLPSLREEEEQVRAHAP [V6N] — higher, 5.18
- AVNLSPSTLPSLREEEEQVRAHAP [V6P] — higher, 5.45
- AVNLSQSTLPSLREEEEQVRAHAP [V6Q] — higher, 5.24
- AVNLSRSTLPSLREEEEQVRAHAP [V6R] — lower, 5.02
- AVNLSSSTLPSLREEEEQVRAHAP [V6S] — higher, 5.18
- AVNLSTSTLPSLREEEEQVRAHAP [V6T] — lower, 5.08
- AVNLSWSTLPSLREEEEQVRAHAP [V6W] — lower, 4.53
- AVNLSYSTLPSLREEEEQVRAHAP [V6Y] — lower, 4.69
- AVNLSVATLPSLREEEEQVRAHAP [S7A] — lower, 4.75
- AVNLSVCTLPSLREEEEQVRAHAP [S7C] — lower, 4.41
- AVNLSVDTLPSLREEEEQVRAHAP [S7D] — lower, 4.8
- AVNLSVETLPSLREEEEQVRAHAP [S7E] — lower, 4.47
- AVNLSVFTLPSLREEEEQVRAHAP [S7F] — lower, 4.11
- AVNLSVGTLPSLREEEEQVRAHAP [S7G] — higher, 5.18
- AVNLSVHTLPSLREEEEQVRAHAP [S7H] — lower, 5.03
- AVNLSVITLPSLREEEEQVRAHAP [S7I] — lower, 3.67
- AVNLSVKTLPSLREEEEQVRAHAP [S7K] — lower, 4.94
- AVNLSVLTLPSLREEEEQVRAHAP [S7L] — lower, 3.62
- AVNLSVMTLPSLREEEEQVRAHAP [S7M] — lower, 4.53
- AVNLSVNTLPSLREEEEQVRAHAP [S7N] — lower, 5.02
- AVNLSVPTLPSLREEEEQVRAHAP [S7P] — lower, 5.09
- AVNLSVQTLPSLREEEEQVRAHAP [S7Q] — lower, 4.91
- AVNLSVRTLPSLREEEEQVRAHAP [S7R] — lower, 4.93
- AVNLSVTTLPSLREEEEQVRAHAP [S7T] — lower, 4.95
- AVNLSVVTLPSLREEEEQVRAHAP [S7V] — lower, 4.71
- AVNLSVWTLPSLREEEEQVRAHAP [S7W] — lower, 3.68
- AVNLSVYTLPSLREEEEQVRAHAP [S7Y] — lower, 4.19
- AVNLSVSALPSLREEEEQVRAHAP [T8A] — higher, 5.28
- AVNLSVSCLPSLREEEEQVRAHAP [T8C] — lower, 4.67
- AVNLSVSDLPSLREEEEQVRAHAP [T8D] — higher, 5.36
- AVNLSVSELPSLREEEEQVRAHAP [T8E] — lower, 4.95
- AVNLSVSFLPSLREEEEQVRAHAP [T8F] — lower, 3.42
- AVNLSVSGLPSLREEEEQVRAHAP [T8G] — higher, 5.15
- AVNLSVSHLPSLREEEEQVRAHAP [T8H] — lower, 4.83
- AVNLSVSILPSLREEEEQVRAHAP [T8I] — lower, 4.12
- AVNLSVSKLPSLREEEEQVRAHAP [T8K] — lower, 4.61
